For test [1], the system named is A549 lung cancer cells. Briefly: Cell proliferation assay of A549 cells expressing FoxM1 point mutants. In kind it is cell-based. The settings on record: A549 cells expressing the mutant.
Test [2] concerns A549 lung cancer cells expressing the FoxM1 phosphorylated point mutant protein. Briefly: Migration assay of A549 cells over-expressing FoxM1 phosphorylated point mutant treated with peptides. Particulars: doxycycline 3 μg/ml, 48 hours, no peptide. It is filed as cell-based. The procedure: Moreover, to evaluate the effects and efficacy of the three peptides comprising the FoxM1 non-phosphorylation point mutation on the motility of cancer cells, the cell motility was measured by a migration assay (FIG. 8C). Specifically, 5×10^4 cells of A549 lung cancer cells expressing the FoxM1 phosphorylated point mutant protein were seeded into an 8.0 μm, 24-well insert. Culture medium containing 10% serum (FBS) was added to a 24-well plate, and then the insert was placed into the plate. 0.5 ml of RPMI 1640 (10% FBS) containing 3 μg/ml of doxycycline was dispensed into the plate, and each of the three kinds of 5 μM of FoxM1 non-phosphorylated point mutant peptides was simultaneously treated. […] After 5 minutes, the plate was washed with 1×PBS five times, and the stained intensity was measured using the Odyssey infrared imaging system. […]
Specifically, 5×10^4 cells of A549 lung cancer cells expressing the FoxM1 phosphorylated point mutant protein were seeded in an 8.0 μm, 24-well insert, and the inserts were placed in a 24-well plate after medium with 10% fetal bovine serum (FBS) was dispensed on the 24-well plate. […] After 5 minutes, the plate was washed with 1×PBS five times, and the stained intensity was measured using the Odyssey infrared imaging system. […]

Consider one molecule from patent publication US20250340881A1, “PHARMACEUTICAL COMPOSITION FOR TREATING CANCER COMPRISING FOXM1 MUTANT OR FOXM1 SHRNA” (Industry-University Cooperation Foundation Hanyang …, priority 2022, published 2025).

B1: S25E: FoxM1 phosphorylated point mutant of the S25 residue, expressed by lentivirus in A549 cells (protein, listed as Homo sapiens)
chain: MKTSPRRPLILKRRRLPLPVQNAPEETSEEEPKRSPAQQESNQAEASKEVAESNSCKFPAGIKIINHPTMPNTQVVAIPNNANIHSIITALTAKGKESGSSGPNKFILISCGGAPTQPPGLRPQTQTSYDAKRTEVTLETLGPKPAARDVNLPRPPGALCEQKRETCDGEAAGCTINNSLSNIQWLRKMSSDGLGSRSIKQEMEEKENCHLEQRQVKVEEPSRPSASWQNSVSERPPYSYMAMIQFAINSTERKRMTLKDIYTWIEDHFPYFKHIAKPGWKNSIRHNLSLHDMFVRETSANGKVSFWTIHPSANRYLTLDQVFKQQQKRPNPELRRNMTIKTELPLGARRKMKPLLPRVSSYLVPIQFPVNQSLVLQPSVKVPLPLAASLMSSELARHSKRVRIAPKVLLAEEGIAPLSSAGPGKEEKLLFGEGFSPLLPVQTIKEEEIQPGEEMPHLARPIKVESPPLEEWPSPAPSFKEESSHSWEDSSQSPTPRPKKSYSGLRSPTRCVSEMLVIQHRERRERSRSRRKQHLLPPCVDEPELLFSEGPSTSRWAAELPFPADSSDPASQLSYSQEVGGPFKTPIKETLPISSTPSKSVLPRTPESWRLTPPAKVGGLDFSPVQTSQGASDPLPDPLGLMDLSTTPLQSAPPLESPQRLLSSEPLDLISVPFGNSSPSDIDVPKPGSPEPQVSGLAANRSLTEGLVLDTMNDSLSKILLDISFPGLDEDPLGPDNINWSQFIPELQ
In the case of B1, the cell proliferation result in test [1] is given as “did not significantly increase”. In addition, the “stained intensity (migration) of over-expressed group compared to the control group” value in test [2] was determined as 5 folds.
